The results in this text go back to the supplement of paper PMC10567573.

To fix the notation:
B1: TRAF3IP2 (parent)
chain: FMEKRNQWLVSQLSAASPDTGHDS
B2: FAM50A (parent)
chain: KALEILRKDFSELRSAGVEQLMYI
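Further: lentivirally expressed fusions sorted by FACS into six bins by GFP to DsRed ratio, PSI derived from sequencing read proportions per bin multiplied by bin number.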

Variants of B1 are the subject of one series. The series can be described thus: protein stability index of a GFP-peptide fusion (GPS, HEK-293T) (PSI 1-6); higher = more stable. The following applies: c terminus: a fixed tail appended.
As for FMEKRNQWLVSQLSAASPDTGHDW [S24W], the protein stability index is 2. Take FMEKRNQWLVSQLSAASPDTGHDI [S24I]: the protein stability index amounted to 2.1. On to FMEKRNQWLVSQLSAASPDTGHDG [S24G], for which the protein stability index worked out at 3.22.

Regarding FMEKRNQWLVSQLSAASPDTGHDY [S24Y], the protein stability index worked out at 2.04.

On to FMEKRNQWLVSQLSAASPDTGHDM [S24M], for which the protein stability index came out at 2.09. As to FMEKRNQWLVSQLSAASPDTGHDT [S24T], the protein stability index stood at 2.41. On to FMEKRNQWLVSQLSAASPDTGHDR [S24R], for which the protein stability index turned out to be 2.48. The same measure, in the same setting: next, FMEKRNQWLVSQLSAASPDTGHDF [S24F]: 2.15; FMEKRNQWLVSQLSAASPDTGHDV [S24V]: 2.29.

Turning to FMEKRNQWLVSQLSAASPDTGHDN [S24N], the protein stability index was 2.68.

As to FMEKRNQWLVSQLSAASPDTGHDD [S24D], the protein stability index was 2.45. For the variant FMEKRNQWLVSQLSAASPDTGHDE [S24E], the protein stability index amounted to 3.68. For the variant FMEKRNQWLVSQLSAASPDTGHDA [S24A], the protein stability index stood at 2.4. For the variant FMEKRNQWLVSQLSAASPDTGHDQ [S24Q], the protein stability index came to 2.85. Consider FMEKRNQWLVSQLSAASPDTGHDL [S24L], for which the protein stability index came to 2.22. As for FMEKRNQWLVSQLSAASPDTGHDP [S24P], the protein stability index is 2.68. For FMEKRNQWLVSQLSAASPDTGHDC [S24C], the protein stability index was 2.61. With FMEKRNQWLVSQLSAASPDTGHDH [S24H], the protein stability index was found to be 2.26. FMEKRNQWLVSQLSAASPDTGHDK [S24K]: the protein stability index worked out at 1.81. Consider FMEKRNQWLVSQLSAASPDTTHDS [G21T], for which the protein stability index is 2.44. The same measure, in the same setting: the value for FMEKRNQWLVSQLSAASPDTHHDS [G21H] was 2.2; that for FMEKRNQWLVSQLSAASPDTNHDS [G21N] was 2.56; that for FMEKRNQWLVSQLSAASPDTQHDS [G21Q] was 2.52.

Turning to FMEKRNQWLVSQLSAASPDTMHDS [G21M], the protein stability index was found to be 1.77. The same measure, in the same setting: the value for FMEKRNQWLVSQLSAASPDTPHDS [G21P] was 2.75; that for FMEKRNQWLVSQLSAASPDTRHDS [G21R] was 2.62; that for FMEKRNQWLVSQLSAASPDTIHDS [G21I] was 1.8. Regarding FMEKRNQWLVSQLSAASPDTDHDS [G21D], the protein stability index amounted to 2.47. Regarding FMEKRNQWLVSQLSAASPDTEHDS [G21E], the protein stability index amounted to 3.22. FMEKRNQWLVSQLSAASPDTKHDS [G21K]: the protein stability index came out at 2.44.

Turning to FMEKRNQWLVSQLSAASPDTWHDS [G21W], the protein stability index was 1.63.

With FMEKRNQWLVSQLSAASPDTYHDS [G21Y], the protein stability index amounted to 2.08. Turning to FMEKRNQWLVSQLSAASPDTAHDS [G21A], the protein stability index is 2.72. Consider FMEKRNQWLVSQLSAASPDTVHDS [G21V], for which the protein stability index was 1.67. As for FMEKRNQWLVSQLSAASPDTFHDS [G21F], the protein stability index worked out at 1.58. Turning to FMEKRNQWLVSQLSAASPDTCHDS [G21C], the protein stability index was determined as 1.8. Turning to FMEKRNQWLVSQLSAASPDTLHDS [G21L], the protein stability index was 1.78.

For FMEKRNQWLVSQLSAASPDTSHDS [G21S], the protein stability index came to 2.18. On the same count and under the same terms, next, FMEKRNQWLVSQLSAASPDTGHNS [D23N]: 2.08; FMEKRNQWLVSQLSAASPDTGHQS [D23Q]: 2.44.

For the variant FMEKRNQWLVSQLSAASPDTGHKS [D23K], the protein stability index came out at 1.6. The same measure, in the same setting: the value for FMEKRNQWLVSQLSAASPDTGHAS [D23A] was 2.49; that for FMEKRNQWLVSQLSAASPDTGHLS [D23L] was 1.81. The same measure, in the same setting: the value for FMEKRNQWLVSQLSAASPDTGHCS [D23C] was 1.73; that for FMEKRNQWLVSQLSAASPDTGHES [D23E] was 2.49. On to FMEKRNQWLVSQLSAASPDTGHFS [D23F], for which the protein stability index is 2.22. FMEKRNQWLVSQLSAASPDTGHIS [D23I]: the protein stability index worked out at 1.65. Take FMEKRNQWLVSQLSAASPDTGHYS [D23Y]: the protein stability index stood at 1.75. Turning to FMEKRNQWLVSQLSAASPDTGHHS [D23H], the protein stability index was 2.47. Take FMEKRNQWLVSQLSAASPDTGHGS [D23G]: the protein stability index is 2.11. With FMEKRNQWLVSQLSAASPDTGHVS [D23V], the protein stability index was found to be 2.71. FMEKRNQWLVSQLSAASPDTGHMS [D23M]: the protein stability index amounted to 2.12. Take FMEKRNQWLVSQLSAASPDTGHTS [D23T]: the protein stability index amounted to 2.57. For FMEKRNQWLVSQLSAASPDTGHSS [D23S], the protein stability index came out at 2.69.

As for FMEKRNQWLVSQLSAASPDTGHRS [D23R], the protein stability index was found to be 2.07. As to FMEKRNQWLVSQLSAASPDTGHPS [D23P], the protein stability index was 2.21. For FMEKRNQWLVSQLSAASPDKGHDS [T20K], the protein stability index was 2.47. Regarding FMEKRNQWLVSQLSAASPDLGHDS [T20L], the protein stability index came to 1.96. As to FMEKRNQWLVSQLSAASPDSGHDS [T20S], the protein stability index was determined as 3.24. Turning to FMEKRNQWLVSQLSAASPDNGHDS [T20N], the protein stability index was found to be 2.1. For the variant FMEKRNQWLVSQLSAASPDWGHDS [T20W], the protein stability index was determined as 1.02.

Turning to FMEKRNQWLVSQLSAASPDYGHDS [T20Y], the protein stability index was found to be 2.64.

Take FMEKRNQWLVSQLSAASPDQGHDS [T20Q]: the protein stability index was found to be 2.51. Take FMEKRNQWLVSQLSAASPDIGHDS [T20I]: the protein stability index was determined as 1.74. Consider FMEKRNQWLVSQLSAASPDMGHDS [T20M], for which the protein stability index amounted to 3.13. Consider FMEKRNQWLVSQLSAASPDRGHDS [T20R], for which the protein stability index is 1.89. Turning to FMEKRNQWLVSQLSAASPDVGHDS [T20V], the protein stability index was found to be 2.75. Turning to FMEKRNQWLVSQLSAASPDPGHDS [T20P], the protein stability index was 1.99. Turning to FMEKRNQWLVSQLSAASPDTGTDS [H22T], the protein stability index amounted to 3.27.

With FMEKRNQWLVSQLSAASPDTGCDS [H22C], the protein stability index came to 2.8. For FMEKRNQWLVSQLSAASPDTGKDS [H22K], the protein stability index came to 2.39.

Regarding FMEKRNQWLVSQLSAASPDTGRDS [H22R], the protein stability index is 1.82.

On to FMEKRNQWLVSQLSAASPDTGEDS [H22E], for which the protein stability index was 3.38. On to FMEKRNQWLVSQLSAASPDTGWDS [H22W], for which the protein stability index came to 2.05.

Take FMEKRNQWLVSQLSAASPDTGFDS [H22F]: the protein stability index stood at 2.4. For the variant FMEKRNQWLVSQLSAASPDTGIDS [H22I], the protein stability index stood at 1.95. On to FMEKRNQWLVSQLSAASPDTGLDS [H22L], for which the protein stability index is 2.29.

Take FMEKRNQWLVSQLSAASPDTGGDS [H22G]: the protein stability index stood at 2.01. The same measure, in the same setting: next, FMEKRNQWLVSQLSAASPDTGMDS [H22M]: 2.15; FMEKRNQWLVSQLSAASPDTGNDS [H22N]: 2.59.

FMEKRNQWLVSQLSAASPDTGSDS [H22S]: the protein stability index is 2.33. As for FMEKRNQWLVSQLSAASPDTGADS [H22A], the protein stability index amounted to 3.18.

For FMEKRNQWLVSQLSAASPDTGDDS [H22D], the protein stability index was determined as 2.87. In the case of FMEKRNQWLVSQLSAASPDTGQDS [H22Q], the protein stability index amounted to 2.75.

In the case of FMEKRNQWLVSQLSAASPDTGPDS [H22P], the protein stability index amounted to 2.94. For the variant FMEKRNQWLVSQLSAASPDTGYDS [H22Y], the protein stability index is 1.94.

Another series covers variants of B2. The series is described as above. The following applies: c terminus: a fixed tail appended.
As for DALEILRKDFSELRSAGVEQLMYI [K1D], the protein stability index was 1.28. Turning to TALEILRKDFSELRSAGVEQLMYI [K1T], the protein stability index came to 1.91. In the case of EALEILRKDFSELRSAGVEQLMYI [K1E], the protein stability index was 1.88. For the variant AALEILRKDFSELRSAGVEQLMYI [K1A], the protein stability index was 3.07. Take PALEILRKDFSELRSAGVEQLMYI [K1P]: the protein stability index is 2.04. In the case of MALEILRKDFSELRSAGVEQLMYI [K1M], the protein stability index turned out to be 3.33. In the case of QALEILRKDFSELRSAGVEQLMYI [K1Q], the protein stability index came to 1.78.

For NALEILRKDFSELRSAGVEQLMYI [K1N], the protein stability index was 1.86.
